This test has as its target oxidised human Prdx6 (Peroxiredoxin 6), peroxidatic cysteine in the sulfenic acid form (human) (UniProt P30041). Briefly: SEC; Sephadex G-75, 20 mM Tris-HCl pH 7.0, 500 ul of 2 mg/ml protein, void volume by Blue dextran.

By stoichiometry N is commonly meant the number of molecules, sites or subunits per partner or assembly. As to “oxidised human Prdx6 (Peroxiredoxin 6), peroxidatic cysteine in the sulfenic acid form (from UniProt P30041 1-224) (enzyme)”, the stoichiometry N stood at 2.

For the origin of these results see PMC7566464.
